In one assay the target is T1, NRP1-b1b2 (UniProt O14786 273-586, limits assumed).
T1 construct: domain: b1b2; Negative control antigen
T1 sequence (looked up): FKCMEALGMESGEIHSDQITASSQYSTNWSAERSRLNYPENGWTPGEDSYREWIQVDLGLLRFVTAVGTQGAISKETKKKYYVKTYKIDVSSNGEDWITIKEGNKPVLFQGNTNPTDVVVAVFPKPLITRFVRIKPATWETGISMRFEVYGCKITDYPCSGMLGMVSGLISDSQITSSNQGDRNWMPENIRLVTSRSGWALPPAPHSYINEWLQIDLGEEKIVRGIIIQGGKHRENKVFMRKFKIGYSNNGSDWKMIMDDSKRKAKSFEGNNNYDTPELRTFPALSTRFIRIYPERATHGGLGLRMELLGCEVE
The experiment in a line: ELISA, coated antigen printed as NRP1. A general note: An ELISA detects its analyte on a solid surface through an enzyme-linked reagent.

In assay [1] the target is T2, KRS fragment (1-207aa) (human, UniProt Q15046 1-207).
T2 construct: range 1-207; also called purified protein of the KRS fragment (1-207aa); KRS protein
T2 sequence (Q15046 1-207 limits assumed): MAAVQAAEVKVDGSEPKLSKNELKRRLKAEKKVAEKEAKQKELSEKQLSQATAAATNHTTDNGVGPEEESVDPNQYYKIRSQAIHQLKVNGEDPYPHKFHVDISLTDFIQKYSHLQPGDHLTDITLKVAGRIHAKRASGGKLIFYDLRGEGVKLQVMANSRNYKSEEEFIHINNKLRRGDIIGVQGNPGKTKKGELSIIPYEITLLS
Description: SPR, Biacore T200, antibody amine-coupled on CM5, KRS (1-207aa) as analyte, 25 C.

Assay [2] addresses T2, KRS fragment (1-207aa). Description: SPR (Biacore T200), antibody immobilised on CM5, KRS 1-207 flowed at 4.8 to 1250 nM. (In general: SPR reads the build-up and loss of mass on a sensor chip optically.)
For the next assay, the target named is T3, KRS epitope peptide F4.
T3 peptide: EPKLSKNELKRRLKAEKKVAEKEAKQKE
The experiment in a line: SPR, Biacore T200, antibody on the chip, peptide F4 as analyte. As to the method: The SPR experiment was performed using a Biacore T200 (GE Healthcare) equipped with a Series S sensor chip CM5 (GE Healthcare) at 25° C. After the antibody was immobilized on the chip using an amine coupling kit (GE Healthcare), the antigen was diluted 4 times in PBS solution in the range of 4.8 nM-1250 nM and flowed for 60 seconds. Thereafter, PBS was flowed for 300 seconds. The obtained data was analyzed with Biacore T200 Evaluation software v2.0 (GE Healthcare).
After that, PBS was flowed for 2400 seconds. The obtained data was analyzed with Biacore T200 Evaluation software v2.0 (GE Healthcare).

As a reminder, the Kd is the equilibrium constant for the complex coming apart. Read a low Kd as higher affinity. By koff is commonly meant the rate constant with which the complex falls apart. Read a high koff as a short-lived complex. One may read the kon as the second-order rate constant of association.

Residue numbers refer to the chain shown, from its start.

B1: N3-8 antibody (IgG) (antibody)
heavy: not shown
light: QSVLTQPPSASGTPGQRVTISCTGSSSNIGSNYVTWYQQLPGTAPKLLIYDNSNRPSGVPDRFSGSKSGTSASLAISGLQSEDEADYYCSSFSDELGAYVFGGGTKLTVLRTVAAPSVFIFPPSDEQLKSGTASVVCLLNNFYPREAKVQWKVDNALQSGNSQESVTEQDSKDSTYSLSSTLTLSKADYEKHKVYACEVTHQGLSSPVTKSFNRGEC
notes: Whole IgG1; also called N3-8 IgG
Regarding B1, the binding result in the assay with NRP1-b1b2 was “no binding (tested: 10 nM)”.

B2: N3-1 antibody (IgG) (antibody)
chain 1: EVQLLESGGGLVQPGGSLRLSCAASGFTFSSYDMSWVRQAPGKGLEWVSAISYDNGNTYYADSVKGRFTISRDNSKNTLYLQMNSLRAEDTAVYYSARMALDFDYWGQGTLVTVSS
chain 2: QSVLTQPPSASGTPGQRVTISCTGSSSNIGSNYVTWYQQLPGTAPKLLIYDNSNRPSGVPDRFSGSKSGTSASLAISGLQSEDEADYYCASFSDELGAYVFGGGTKLTVL
For B2, binding in the assay with KRS fragment (1-207aa) [1] was characterised by a dissociation constant (Kd) of 31 nM. In the assay with KRS fragment (1-207aa) [2], this molecule came in with a koff of 0.0206 s⁻¹ and a kon of 664000 M⁻¹ s⁻¹.

B3: N3-8-4 antibody (IgG) (antibody, V domains shown)
VH: B2 chain 1 with Y53P, D54Y, N55S, N57R, T58I, S96C, M99L
VL: QSVLTQPPSASGTPGQRVTISCTGSSSNIGSNYVTWYQQLPGTAPKLLIYDNSNRPSGVPDRFSGSKSGTSASLAISGLQSEDEADYYCSSFSDELGAYVFGGGTKLTVLG
notes: Whole IgG1, N3-8 derivative; also called N3-8-4 IgG
For the molecule B3, in the assay with KRS epitope peptide F4, binding was put at a Kd of 10.1 nM, the koff stood at 0.0009 s⁻¹ and the kon was found to be 89500 M⁻¹ s⁻¹.

Source of the values: patent US20220049016A1 (ZYMEDI, published 2022).
